Data on 15 sequences can be found in the DeepSol protein solubility set.

A short description of this data set: soluble on expression in E. coli; label from the status in PepcDB or PDB records.
Consider “MKVYLHFSPQFFANTYLIGNEITKEAVIIDPAKITEKMIHQIEKNEFNLKAVLLTHDLEHPYETGLNTILKIYSPKVYAGSCFSENVTINTLRGDGCIDVAGYSVRYFAIPAHSSYSYMFQIENMVFTGTSLSAGMIGQTSNMYAERTLRNILKTKLMCFEDNLIIMPFYGPPTSIGVERKYNASFFQDLEHHHHHH”, for which the “soluble on expression in E. coli” value was “not soluble”.
As for “MKVYYECAPCFLRQAREAIDLATDDEELKLRVMENILELLSERFRRGQVSNELGTRMHRLIKDMTGSEDPYLDEKRRCNEIALRFLPTVRDYLECHSDLESHVKVAITGNIIDFGALGLDFDHDRGIQESLRAPLTINHVPLLEDRLREASEVLYLLDNTGEILFDRPLIEKLAGYDVSVKVAVKGEPILNDACMEDALEAGLDEVAEIVTTGTDSVGIVYSDLSDEFRDMLDGTELVIAKGMGNYEGLTEISDGSRDIFCLLNAKCSAIARDLGVARGDNVAVKI”, the entry is “not soluble”.
As for “MKWFRFPIAVIGLVLLSGCATQNESATQWLYPPMAVPLQASIQQEVQIARLSQLLQRTDLEPEIRAKMLFERGNYYDSVGLRDLARLDFTQSLSINPAQPDVFNLLGVYYTEAGEFDAAYESFDSTLELDPSNEYAVRNRAIALYYGERPQLALEEITKHYQQDPQDPFRALWLYIIESDIDPTKARTELLERYQQHDEQWGWVLVGLMLDQLSEEVAFKAIIAGSRENELLAQRLTEAYFYLGKRYQMQGELAHALSLYKLAISFNVYEYVEHRYAFLELGRIYQQAREEQLARAKAEAMTQ”, the “soluble on expression in E. coli” value was “not soluble”.
As for “MKWKEQAIILGTRQYGETSVILEVMTRQHGRYMGVVKGGRSRRMAVLLQPGNFVEAEWWARLDEHLGLFRLEALDLHAARLILFPEALYALQLIVFHLHLLPERDPHPILYDILHLFMQSFDEPFINAELLVRFEMRFLEELGFGLDLSRCAATGRLEKLCYVSPKSGRAVCEEAGHPWREKLLNLPQFLVQRTVRPVDFSDIKNGFILTGFFLMRHVWEPRNIKQPSVRISLIQLFEQRFRMQASFVDLKTINRM”, the “soluble on expression in E. coli” value was “not soluble”.
In the case of “MKYDLIIIGSGSVGAAAGYYATRAGLKVLMTDAHMPPHQQGSHHGDTRLIRHAYGEGEKYVPLVLRAQTLWDELSTHNEEPIFVRSGVVNLGPADSAFLANVARSAQQWQLNVERLDATALMTRWPEIRVPDNYIGLFEADSGFLRSELAITTWLRLAREAGCAQLFNSPVSHIHHDDNGVTIETSEGCYHASKALISAGTWVKALVPELPVQPVRKVFAWFKADGRYSTKNRFPAFTGEMPNGDQYYGFPAENDELKIGKHNGGQLIQAPEERKPFAAVASDGAEAFPFLRNVLPGIGGCLHGAACTYDNSPDEDFIIDTLPGHENTLVITGLSGHGFKFAPVLGEIAADFALGKTPSFDLTPFRLSRFSQ”, the “soluble on expression in E. coli” value is on record as “not soluble”.
With “MKYIINHSNDTAFNIALEEYAFKHLLDEDQIFLLWINKPSIIVGRHQNTIEEINRDYVRENGIEVVRRISGGGAVYHDLNNLNYTIISKEDENKAFDFKSFSTPVINTLAQLGVKAEFTGRNDLEIDGKKFCGNAQAYINGRIMHHGCLLFDVDLSVLANALKVSKDKFESKGVKSVRARVTNIINELPKKITVEKFRDLLLEYMKKEYPEMTEYVFSEEELAEINRIKDTKFGTWDWNYGKSPEFNVRRGIKFTSGKVEVFANVTESKIQDIKIYGDFFGIEDVAAVEDVLRGVKYEREDVLKALKTIDITRYFAGISREEIAEAVVG”, the “soluble on expression in E. coli” value was “not soluble”.
With “MKYKHLILSLSLIMLGPLAHAEEIGSVDTVFKMIGPDHKIVVEAFDDPDVKNVTCYVSRAKTGGIKGGLGLAEDTSDAAISCQQVGPIELSDRIKNGKAQGEVVFKKRTSLVFKSLQVVRFYDAKRNALAYLAYSDKVVEGSPKNAISAVPVMPWRQ” the entry was “soluble”; with “MKYKIFASTTPQTEPVLQKLKQVLKGCEAVEKGFDYLFVLGGDGFFVSTVANYNCHNCRVVGINTGHLGFYTSFNEKDLDDNFLQKLQQCHFQRISLLEVSVNGQQHLVLNELAVYTNTAYPINIFIDGEAWEFYRGSGLLIGPRTGSTALAKSAKGAVIFPGIDVLQIIEMNPLLHPNQVTIQSPIILPKETQVEFVVKKAFNPQQFPTFYCDGRKLELPNADTTLALKLVQSTPMFNISLKTQDFINKLKSTFIKQSLEHHHHHH”, “not soluble”; with “MKYKRVLLKLSGEFLTRNGFGIEPEATQALAREIKAAYDTGVQLAIVIGAGNLWRGARQGVGMDRATADYIGMLATIMNALALQDALESLGVPTRVQTALTITQVAEPYIRRRALRHLEKERIVIFGGGTGNPFFSTDTAAALRALEVGAEVVLMAKNKVDGVYSDDPRKNPEAVRFDELTYLEVLNRGLQVMDTTAITLCMEAGLPIVVFDIFKPGALVGIIQGEKVGTLIH”, “soluble”.
As for “MKYQVKQVAEISGVSIRTLHHYDNIELLNPSALTDAGYRLYSDADLERLQQILFFKEIGFRLDEIKEMLDHPNFDRKAALQSQKEILMKKKQRMDEMIQTIDRTLLSVD”, the entry is “soluble”.
On to “MKYVLIQATDNGILRRAECGGAVTALFKYLLDKKLVDGVLALKRGEDVYDGIPTFITNSNELVETAGSLHCAPTNFGKLIAKYLADKKIAVPAKPCDAMAIRELAKLNQINLDNVYMIGLNCGGTISPITAMKMIELFYEVNPLDVVKEEIDKGKFIIELKNGEHKAVKIEELEEKGFGRRKNCQRCEIMIPRMADLACGNWGAEKGWTFVEICSERGRKLVEDAEKDGYIKIKQPSEKAIQVREKIESIMIKLAKKFQKKHLEEEYPSLEKWKKYWNRCIKCYGCRDNCPLCFCVECSLEKDYIEEKGKIPPNPLIFQGIRLSHISQSCINCGQCEDACPMDIPLAYIFHRMQLKIRDTLGYIPGVDNSLPPLFNIERLEHHHHHH”, for which the “soluble on expression in E. coli” value is listed as “soluble”.
With “MLAFKVVISDKEKSVQMEVDPSESRGLIGLTIGDEFDGSIIGLSGYKLKITGGSDKNGFPMKKTVPGARRIRSLVSGGVGYKPRRDGERRRKTFRGNTISDDIVQINTVVIEKLEHHHHHH” the entry was “not soluble”; with “MLARLLLSFSVVLTAFGVGAAEVDKTQPYQMMKQVAEVTFARLKAEQPKIKQDPNLLKVIVEQELMPYVNDRYAALKLLGPNLKGAKREDVLEFVDAFRAYLIASYAQVLTQYSDQQIEFGPEPKLDDSKRITSIKVEIIDAPRPNIKLEFKLRKDNKTDEWEAFDMVAEGISLLSSKQSEWNTKIRQDGILAVAQDLEKLAAEPIRFEAKK”, “soluble”; with “MLARYLNLIGRRSASPYRPQRLPAKFDNVIVAMSSGVDSSVAAALFAGEFPNTRGVYMQNWSESQSLDDPGKEPCYERDWRDVNRVAKHLNIRVDKVNFEQDYWIDVFEPMLRGYSEGSTPNPDIGCNKFVKFGKLREWLDEKYGTGNYWLVTGHYARVMQEMNGKGLFHLLRSIYRPKDQSYYLSQINSTVLSSLLLPIGHLTKPEVRDLAKYAGLPTAEKPDSQGICFVNNSQHGKFKNFLKHYLPSSPGDIITVDPQSGAKTTWGRHDGLWSYTIGQKVGISMPQADPNYQGTWFVSEKLRDTNEILIVRGRDNPALYSDTMRIENFSSLGPREDTINAFQNTGALTLQFRSLQVPVQIKSCKLNRSADNLDITIHLASKQRAITPGQSCCLYIDDRVLGSGPISHVNNNDTHA”, “soluble”.
Regarding “MLAYPHLFTPLDLGFTTLKNRILMGSMHTGLEELPDGPQRLAAFYAERAAGGVGLIVTGGIAPNMKGGVYQGASVLNDAAQIPHHQVVTEAVHQAGGKIALQILHAGRYSYQKHPVAPSALQAPINPFVPQALSHEEILQTIADFAHCAQLAKQAGYDGVEIMGSEGYLINQFLTARTNQRDDEWGGDFTHRMRFAVEIVRAVRQATGHDFILIYRLSMLDLVEEGSNWVEIEQLAQAVEQAGATVINTGIGWHEARIPTIATMVPRAGFSWVTRKLMGKVNIPLITTNRINDPAVAEQVLADGCADMVSMARPFLADAAFVQKAAQGRADEINTCIGCNQACLDQIFDGKLTSCLVNPRACRETEMPELPTDAPKRLAVVGAGPAGLAFAVTAARRGHQVTLFDAAAEIGGQFNIAKQIPGKEEFYETLRYFRRQLVLNGVTLQLNTLVQVKQLAEFDEVILACGIQPRLPCINGIDHPKVLTYLDVLRDKKPVGQRVAIIGAGGIGFDTAEYLSQSGDSPRFDSTAFSTEWGIDQDLAHRGGLSPAGAKVPPSPRQIFLLQRKASKVGEGLGKTTGWIHRTSLAMRGVKMLNSVSYEAIDDKGLHIIRAEQACCLPVDTIIICAGQEPRRELHQPLLDMGKTVYLIGGADKAVELDARRAIDQGTRLALAI”, the “soluble on expression in E. coli” value was “not soluble”.
